Measurements as given in patent publication US20170283834A1, “Processes for Producing A Fermentation Product Using A Fermenting Organism” (Novozymes A/S, priority 2014, published 2017).

test system: zein; assay: Relative activity assay of protease variants (zein micro titer plate); format: biochemical; conditions: Table 5, upper part
Procedure: Each well contains 200 microL of 0.05-0.1% of zein (Sigma), 0.25 mM ZnSO4 and 1% of agar in 20 mM sodium acetate buffer, pH 4.5.
Yeast clones on SC-glucose were inoculated to a well of a 96-well micro titre plate containing YPD+Zn medium and cultivated at 28° C. for 3 days. The culture supernatants were applied to a 96-well zein micro titer plate and incubated at at least 2 temperatures (ex. 60° C. and 65° C., 70° C. and 75° C., 70° C. and 80° C.) for more than 4 hours or overnight. The turbidity of zein in the plate was measured as A630 and the relative activity (higher/lower temperatures) was determined as an indicator of thermoactivity improvement. The clones with higher relative activity than the parental variant were selected and the sequence was determined.

Molecule	Relative activity 80° C./70° C.	Relative activity 75° C./70° C.	Relative activity 85° C./70° C.
JTP135: protease variant of SEQ ID NO: 3: S38T D79L S87P A112P A126V D142L (protein, listed as Thermoascus aurantiacus) MRLVASLTALVALSVPVFPAAVNVKRASSYLEITLSQVSNTLIKAVVQNTGSDELSFVHLNFFKDPAPVKKVSVYRDGSEVQFEGILSRYKSTGLSRDAFTYLAPGESVEDVFDIASTYDLTSGGPVTIRTEGVVPYATANSTDIAGYISYSSNVLTIDVDGAAAATVSKAITPLDRRTRISSCSGSRQSALTTALRNAASLANAAADAAQSGSATKFSEYFKTTSSSTRQTVAARLRAVAREASSSSSGATTYYCLDPYGYCSPNVLAYTLPSYNIIANCDIFYTYLPPLTSTCHAQDQATTVLHEFTHAPGVYSPGTLDLAYGYQAAMGLSSSQAVMNADTYALYANAIYLGC	62%	–	–
JTP140: protease variant of SEQ ID NO: 3: D79L S87P N98C A112P G135C D142L (protein, listed as Thermoascus aurantiacus) MRLVASLTALVALSVPVFPAAVNVKRASSYLEITLSQVSNTLIKAVVQNTGSDELSFVHLNFFKDPAPVKKVSVYRDGSEVQFEGILSRYKSTGLSRDAFTYLAPGESVEDVFDIASTYDLTSGGPVTIRTEGVVPYATANSTDIAGYISYSSNVLTIDVDGAAAATVSKAITPLDRRTRISSCSGSRQSALTTALRNAASLANAAADAAQSGSASKFSEYFKTTSSSTRQTVAARLRAVAREASSSSSGATTYYCLDPYGYCSPNVLAYTLPSYCIIANCDIFYTYLPPLTSTCHAQDQATTALHEFTHAPCVYSPGTLDLAYGYQAAMGLSSSQAVMNADTYALYANAIYLGC	–	81%	–
JTP141: protease variant of SEQ ID NO: 3: D79L S87P A112P D142L T141C M161C (protein, listed as Thermoascus aurantiacus) MRLVASLTALVALSVPVFPAAVNVKRASSYLEITLSQVSNTLIKAVVQNTGSDELSFVHLNFFKDPAPVKKVSVYRDGSEVQFEGILSRYKSTGLSRDAFTYLAPGESVEDVFDIASTYDLTSGGPVTIRTEGVVPYATANSTDIAGYISYSSNVLTIDVDGAAAATVSKAITPLDRRTRISSCSGSRQSALTTALRNAASLANAAADAAQSGSASKFSEYFKTTSSSTRQTVAARLRAVAREASSSSSGATTYYCLDPYGYCSPNVLAYTLPSYNIIANCDIFYTYLPPLTSTCHAQDQATTALHEFTHAPGVYSPGCLDLAYGYQAAMGLSSSQAVCNADTYALYANAIYLGC	–	68%	–
JTP143: protease variant of SEQ ID NO: 3: S36P D79L S87P A112P D142L (protein, listed as Thermoascus aurantiacus) MRLVASLTALVALSVPVFPAAVNVKRASSYLEITLSQVSNTLIKAVVQNTGSDELSFVHLNFFKDPAPVKKVSVYRDGSEVQFEGILSRYKSTGLSRDAFTYLAPGESVEDVFDIASTYDLTSGGPVTIRTEGVVPYATANSTDIAGYISYSSNVLTIDVDGAAAATVSKAITPLDRRTRISSCSGSRQSALTTALRNAASLANAAADAAQSGPASKFSEYFKTTSSSTRQTVAARLRAVAREASSSSSGATTYYCLDPYGYCSPNVLAYTLPSYNIIANCDIFYTYLPPLTSTCHAQDQATTALHEFTHAPGVYSPGTLDLAYGYQAAMGLSSSQAVMNADTYALYANAIYLGC	–	69%	–
JTP144: protease variant of SEQ ID NO: 3: A37P D79L S87P A112P D142L (protein, listed as Thermoascus aurantiacus) MRLVASLTALVALSVPVFPAAVNVKRASSYLEITLSQVSNTLIKAVVQNTGSDELSFVHLNFFKDPAPVKKVSVYRDGSEVQFEGILSRYKSTGLSRDAFTYLAPGESVEDVFDIASTYDLTSGGPVTIRTEGVVPYATANSTDIAGYISYSSNVLTIDVDGAAAATVSKAITPLDRRTRISSCSGSRQSALTTALRNAASLANAAADAAQSGSPSKFSEYFKTTSSSTRQTVAARLRAVAREASSSSSGATTYYCLDPYGYCSPNVLAYTLPSYNIIANCDIFYTYLPPLTSTCHAQDQATTALHEFTHAPGVYSPGTLDLAYGYQAAMGLSSSQAVMNADTYALYANAIYLGC	–	57%	–
JTP137: protease variant of SEQ ID NO: 3: A27K D79L S87P A112P A126V D142L (protein, listed as Thermoascus aurantiacus) MRLVASLTALVALSVPVFPAAVNVKRASSYLEITLSQVSNTLIKAVVQNTGSDELSFVHLNFFKDPAPVKKVSVYRDGSEVQFEGILSRYKSTGLSRDAFTYLAPGESVEDVFDIASTYDLTSGGPVTIRTEGVVPYATANSTDIAGYISYSSNVLTIDVDGAAAATVSKAITPLDRRTRISSCSGSRQSALTTALRNAASLANKAADAAQSGSASKFSEYFKTTSSSTRQTVAARLRAVAREASSSSSGATTYYCLDPYGYCSPNVLAYTLPSYNIIANCDIFYTYLPPLTSTCHAQDQATTVLHEFTHAPGVYSPGTLDLAYGYQAAMGLSSSQAVMNADTYALYANAIYLGC	54%	–	–
JTP146: protease variant of SEQ ID NO: 3: S50P D79L S87P A112P D142L (protein, listed as Thermoascus aurantiacus) MRLVASLTALVALSVPVFPAAVNVKRASSYLEITLSQVSNTLIKAVVQNTGSDELSFVHLNFFKDPAPVKKVSVYRDGSEVQFEGILSRYKSTGLSRDAFTYLAPGESVEDVFDIASTYDLTSGGPVTIRTEGVVPYATANSTDIAGYISYSSNVLTIDVDGAAAATVSKAITPLDRRTRISSCSGSRQSALTTALRNAASLANAAADAAQSGSASKFSEYFKTTSSPTRQTVAARLRAVAREASSSSSGATTYYCLDPYGYCSPNVLAYTLPSYNIIANCDIFYTYLPPLTSTCHAQDQATTALHEFTHAPGVYSPGTLDLAYGYQAAMGLSSSQAVMNADTYALYANAIYLGC	63%	83%	–
JTP145: protease variant of SEQ ID NO: 3: S49P D79L S87P A112P D142L (protein, listed as Thermoascus aurantiacus) MRLVASLTALVALSVPVFPAAVNVKRASSYLEITLSQVSNTLIKAVVQNTGSDELSFVHLNFFKDPAPVKKVSVYRDGSEVQFEGILSRYKSTGLSRDAFTYLAPGESVEDVFDIASTYDLTSGGPVTIRTEGVVPYATANSTDIAGYISYSSNVLTIDVDGAAAATVSKAITPLDRRTRISSCSGSRQSALTTALRNAASLANAAADAAQSGSASKFSEYFKTTSPSTRQTVAARLRAVAREASSSSSGATTYYCLDPYGYCSPNVLAYTLPSYNIIANCDIFYTYLPPLTSTCHAQDQATTALHEFTHAPGVYSPGTLDLAYGYQAAMGLSSSQAVMNADTYALYANAIYLGC	59%	82%	–
JTP161: protease variant of SEQ ID NO: 3: D79L Y82F S87G A112P D142L (protein, listed as Thermoascus aurantiacus) MRLVASLTALVALSVPVFPAAVNVKRASSYLEITLSQVSNTLIKAVVQNTGSDELSFVHLNFFKDPAPVKKVSVYRDGSEVQFEGILSRYKSTGLSRDAFTYLAPGESVEDVFDIASTYDLTSGGPVTIRTEGVVPYATANSTDIAGYISYSSNVLTIDVDGAAAATVSKAITPLDRRTRISSCSGSRQSALTTALRNAASLANAAADAAQSGSASKFSEYFKTTSSSTRQTVAARLRAVAREASSSSSGATTYYCLDPFGYCSGNVLAYTLPSYNIIANCDIFYTYLPPLTSTCHAQDQATTALHEFTHAPGVYSPGTLDLAYGYQAAMGLSSSQAVMNADTYALYANAIYLGC	30%	–	12%
JTP148: protease variant of SEQ ID NO: 3: D79L S87P D104P A112P D142L (protein, listed as Thermoascus aurantiacus) MRLVASLTALVALSVPVFPAAVNVKRASSYLEITLSQVSNTLIKAVVQNTGSDELSFVHLNFFKDPAPVKKVSVYRDGSEVQFEGILSRYKSTGLSRDAFTYLAPGESVEDVFDIASTYDLTSGGPVTIRTEGVVPYATANSTDIAGYISYSSNVLTIDVDGAAAATVSKAITPLDRRTRISSCSGSRQSALTTALRNAASLANAAADAAQSGSASKFSEYFKTTSSSTRQTVAARLRAVAREASSSSSGATTYYCLDPYGYCSPNVLAYTLPSYNIIANCPIFYTYLPPLTSTCHAQDQATTALHEFTHAPGVYSPGTLDLAYGYQAAMGLSSSQAVMNADTYALYANAIYLGC	64%	76%	–
JTP136: protease variant of SEQ ID NO: 3: D79L Y82F S87P A112P A126V D142L (protein, listed as Thermoascus aurantiacus) MRLVASLTALVALSVPVFPAAVNVKRASSYLEITLSQVSNTLIKAVVQNTGSDELSFVHLNFFKDPAPVKKVSVYRDGSEVQFEGILSRYKSTGLSRDAFTYLAPGESVEDVFDIASTYDLTSGGPVTIRTEGVVPYATANSTDIAGYISYSSNVLTIDVDGAAAATVSKAITPLDRRTRISSCSGSRQSALTTALRNAASLANAAADAAQSGSASKFSEYFKTTSSSTRQTVAARLRAVAREASSSSSGATTYYCLDPFGYCSPNVLAYTLPSYNIIANCDIFYTYLPPLTSTCHAQDQATTVLHEFTHAPGVYSPGTLDLAYGYQAAMGLSSSQAVMNADTYALYANAIYLGC	59%	–	–
JTP180: protease variant of SEQ ID NO: 3: S70V D79L Y82F S87G Y97W A112P D142L (protein, listed as Thermoascus aurantiacus) MRLVASLTALVALSVPVFPAAVNVKRASSYLEITLSQVSNTLIKAVVQNTGSDELSFVHLNFFKDPAPVKKVSVYRDGSEVQFEGILSRYKSTGLSRDAFTYLAPGESVEDVFDIASTYDLTSGGPVTIRTEGVVPYATANSTDIAGYISYSSNVLTIDVDGAAAATVSKAITPLDRRTRISSCSGSRQSALTTALRNAASLANAAADAAQSGSASKFSEYFKTTSSSTRQTVAARLRAVAREASSSVSGATTYYCLDPFGYCSGNVLAYTLPSWNIIANCDIFYTYLPPLTSTCHAQDQATTALHEFTHAPGVYSPGTLDLAYGYQAAMGLSSSQAVMNADTYALYANAIYLGC	52%	–	–
